Reference: paper PMC3903488, “Characterization of a Ginsenoside-Transforming β-glucosidase from Paenibacillus mucilaginosus and Its Application for Enhanced Production of Minor Ginsenoside F2” (PLoS ONE, 2014)

Key:
[1] = substrate: CC(C)=CCC[C@](C)(O[C@@H]1O[C@H](CO[C@@H]2O[C@H](CO)[C@@H](O)[C@H](O)[C@H]2O)[C@@H](O)[C@H](O)[C@H]1O)[C@H]1CC[C@]2(C)[C@@H]1[C@H](O)C[C@@H]1[C@@]3(C)CC[C@H](O[C@@H]4O[C@H](CO)[C@@H](O)[C@H](O)[C@H]4O[C@@H]4O[C@H](CO)[C@@H](O)[C@H](O)[C@H]4O)C(C)(C)[C@@H]3CC[C@]12C; test: initial velocity, non-linear regression; type: biochemical, Paenibacillus mucilaginosus; conditions: 0.2-5.0 mM substrate; assay buffer not given
Text: (§1) initial velocity, non-linear regression on BglPm

[2] = substrate: CC(C)=CCC[C@](C)(O[C@@H]1O[C@H](CO)[C@@H](O)[C@H](O)[C@H]1O)[C@H]1CC[C@]2(C)[C@@H]1[C@H](O)C[C@@H]1[C@@]3(C)CC[C@H](O[C@@H]4O[C@H](CO)[C@@H](O)[C@H](O)[C@H]4O[C@@H]4O[C@H](CO)[C@@H](O)[C@H](O)[C@H]4O)C(C)(C)[C@@H]3CC[C@]12C; test: initial velocity, non-linear regression; type: biochemical, Paenibacillus mucilaginosus; conditions: 0.2-5.0 mM substrate; assay buffer not given
Text: as §1

[3] = substrate: O=[N+]([O-])c1ccc(O[C@@H]2O[C@H](CO)[C@@H](O)[C@H](O)[C@H]2O)cc1; test: purified protein; conditions: 0.1-10.0 mM substrate, standard activity assay 50 mM sodium phosphate pH 7.5, 37 °C

B1: BglPm (Paenibacillus mucilaginosus 3016) (protein)
chain: EYIFPQQFMFGSATAAYQVEGNNTNSDFWAEEHAEGSPYQDKSGDAVDHYRLYREDIALMASLGLKAYRFSIEWARIEPAPGQFSLSAIAHYRDVLQACYEHRLTPVVAMHHFSSPQWLMRFGGWGSEEVPERFAKYCEFVFQELGDLIPYVLTFNEVNLPVMLREVFSSIGIIPPVGIDGAAWTAPGWRASAAQLCGTTADRYVTFHMISDEPKIALLMEAHRRARQTIKRLQPNAKVGLSMALSDIQSVPGGEAWAQQKWQQYFEQYLPALEGDDFFGLQNYTREVYGPEGRVTPAADAELTQMKYEYYPEALGQVIRKVAKALTLPIFVTEHGVATDDDERRIEFIRRGLQGVHACLEEGIDVRGYLHWTTFDNFEWNAGYSMRFGLIGVDRTTQERTVKESARYLGRIASTKVL
notes: expressed in E. coli BL21(DE3)
Km [1]: 384 ± 64 µM | Vmax [1]: 0.369 µmol/min/mg | kcat [1]: 0.458 ± 0.018 s⁻¹ | kcat/Km [1]: 1230 ± 250 M⁻¹ s⁻¹ | Km [2]: 352 ± 53 µM | Vmax [2]: 0.484 µmol/min/mg | kcat [2]: 0.601 ± 0.066 s⁻¹ | kcat/Km [2]: 1780 ± 460 M⁻¹ s⁻¹ | Km [3]: 3240 ± 390 µM | Vmax [3]: 10.2 µmol/min/mg | kcat [3]: 8.13 s⁻¹ | kcat/Km [3]: 2560 M⁻¹ s⁻¹
